In US20220195015A1 (published 2022):

B1: C047 (antibody, V domains shown)
VH: QVQLQESGPGLVKPSETLSLTCTVSGGSISSTTYYWDWIRQSPGKGLEWIGSIFYTGITYYSPSLKSRVTISVDTSKNQFSLRLNSMTAADTAVYYCARRLRQLWFGPWFDPWGQGTLVTVSS
VL: QSALTQPPSASGSPGQSVTISCTGTRSDVGDYNYVSWYQQHPDKAPKLIIYEVTKRPSGVPDRFSGSKSGNTASLTVSGLQAEDEADYYCSSYAGSNNVMFGGGTKLTVL
B2: C046 (antibody, V domains shown)
VH: EVQLVESGGGLAQPGRSLRLSCAASGFTFDDYAMHWVRQAPGKGLEWVSGINWNSGSLGYADSVKGRFTISRGIAKNSLYLQMNSLRPEDTAFYYCAKAGVRGIAAAGPDLNFDYWGQGTLVTVSS
VL: EIVLTQSPATLSLSPGERATLSCRASQSVSSYLAWYQQKPGQAPRLLIYDASNRATGIPARFIGSGSGTDFTLTISSLEPEDFAVYYCQQRITFGQGTRLEIK
B3: C524 (antibody, V domains shown)
VH: EVQLVESGGDLIQPGGSLRLSCAASGFSVSNSYMSWVRQAPGKGLEWVSIIYSGGSTYYADSVKGRFTISRDNSKNTLYLQMNSLRAEDTAVYFCAKTPRGDYDSSGTSAYWGQGTLVTVSS
VL: QLVLTQSPSASASLGASVNLTCTLSSGHSSYAIAWHQQQPEKGPRFLMKLSSDGSHNKGDGIPDRFSGSSSGAERFLTISSLQSEDEADYYCQTWGIGSDWVFGGGTKLTVL
B4: C511 (antibody, V domains shown)
VH: EVQLVESGGGLVQPGGSLRLSCAATEITVSSNYMTWVRQAPGKGLEWVSVIYPGGSTFYADSVKGRFSISRDNSKNTLYLQMNSLRAEDTAVYYCARDLVVYGLDCWGQGTLVTVSS
VL: DIQLTQSPSFLSASVGDRVTITCRASQGISSYLAWYQQKPGKAPKLLIYAASTLQSGVPSRFSGSGSGTEFTLTISSLQPEDFATYYCQQLNTYPPPFGGGTKVEIK
B5: C531 (antibody, V domains shown)
VH: EVQLVESGGGLVQPGRSLRLSCVATGFTFDDFAMHWVRQAPGKGLEWVSGISWNGGIIGYVDSVKGRFTISRDNAKNSLYLQMNSLRPEDTALYYCVKGYRYYYDILTGYYNDAGAFDYWGQGTLVTVSS
VL: DIQSTQSPSFLSASVGDRVAITCRASQGISSYLAWYQQKPGKAPKLLIYPASTLQSGVPSGFSGSGSGTEFTLTISSLQPEDFATYYCQQLNDYPFTFGPGTKVDIK
B6: C515 (antibody, V domains shown)
VH: EVQLVESGGGLVQPGGSLRLSCAASGFIVSSNYMSWVRQAPGKGLEWVSILYSGGSTYYADSVKGRFTISRDNSKNTLYLQMNSLRAEDTAVYYCARDLVVYGADYWGQGTLVTVSS
VL: DIQLTQSPSFLSASVGDRVTITCRASQGISSYLAWYQQKPGKAPKLLIYAASTLQSGVPSRFSGSGSGTEFTLTISSLQPEDFATYYCQQLNSYPPPFGGGTKVEIK
B7: C529 (antibody, V domains shown)
VH: EVQLLESGGGLVQPGGSLRLSCAASGFTFNNYAMNWVRQAPGRGLEWVSGISGSGANTYYADSVKGRFTISRDNPKNTLSLQMNSLRAEDTALYYCAKVLSPTYYDSWSGPDAFDFWGQGTMVTVSS
VL: DIQMTQSPSTLSASVGDRVTITCRASQTISPWLAWYQQKPGKAPNLLIYKASSLESGVPSRFSGSGSGTEFTLTISSLQPDDFATYYCQQYNSYSSWTFGQGTKVEIK
B8: C526 (antibody, V domains shown)
VH: QVQLVQSGAEVKKPGASVKVSCKASGHTFTTYYLHWVRQAPGQGLEWMGRIDPSGGSTTYAQKFQGRVTMTRDTSTSTVYMELSSLRSEDTALYYCARGGYCGSTSCSPDDYFDYWGQGTLVTVSS
VL: SYELTQPPSVSVAPGKTARITCGGNNIGSKSVHWYQQKPGQAPVLVIYYDSDRPSGIPERFSGSNSGNTATLTISRVEAGDEADYYCQVWDSSSDHYYVFGTGTKVTVL
B9: C512 (antibody, V domains shown)
VH: QVQLQESGPGLVKPSGTLSLTCAVSAGSISSNNWWSWVRQPPGKGLEWIGEVYHNGNINYNPSLKSRVTLSVDKSKNQFSLKLSSVTAADTAVYYCAKGGDRAMGPEYFDSWGQGTLVTVSS
VL: QSALTQPASVSGSPGQSITISCTGTSSDVGANNYVSWYQQHPGKAPKLMIYDVNERPSGVSNRFSGSKSGNTASLTISGLQTEDEADYYCSSFASSSTLLFGGGTKLTVL
B10: C597 (antibody, V domains shown)
VH: QVQLVQSGPEVKKPGTSVKVSCKASGFTFTNSAVQWVRQSRRQRLEWIGWIVVGSGNTNYAQKFQERVTITRDMSTSTAYMELSSLRSEDTAVYYCAAVDCNSTSCYDAFDIWGQGTMVTVSS
VL: EIVLTQSPGTLSLSPGERATLSCRASQSFRSSYLAWYQQKPGQAPRLLIYGASSRATGIPDRFSGSGSGSDFTLTISRLEPEDFAVYYCQQYDISPWTFGQGTKVEIK
B11: C598 (antibody, V domains shown)
VH: QVQLVQSGPEVKKPGTSVKVSCKASGFTFSSSAVQWVRQARGQRLEWIGWIVVGSGNTNYAQKFQERVTITRDMSTSTAYMELSSLRSEDTAVFYCAAPYCNVTTCFDGFNIWGRGTMVTVSS
VL: EIVLTQSPGTLSLSPGERATLSCRASQSVRSSYFAWYQQKPGQAPRLLIYAASSRATGIPDRFSGSGSGTDFTLTISRLEPEDFALYYCQQYGSSPWTFGQGTKVEIK
B12: C510 (antibody, V domains shown)
VH: QVQLQQWGAGLLKPSETLSRTCAVYGGSFSGYYWSWFRQSPGKGLEWIGEINHSGSTNYNPSLKNRVTISVDTSKNQFSLMLSSVTAADTAVYYCARGGFGVVINYYYSGMDVWGRGTTVTVSS
VL: not shown
B13: C530 (antibody, V domains shown)
VH: QVQLVESGGGVAQPGRSLRLSCAASGFTFSRYGMHWVRQAPGKGLEWVAVIWHDGSDKYCADFVKGRFTISRDNSKNTLYMQMDSLRAEDTAVYYCARGGRPDHETGIAVLGEYYFDSWGQGTLVTVSS
VL: SYELTQPPSVSVSPGQTARITCSGDAFPLQYGYWYQQKPGQAPVLVIYKDKERPSGISERFSGSSSGTTVTLTISGVQAEDEADYYCQSADTNGVVFGGGTSLTVL
B14: C513 (antibody, V domains shown)
VH: EVQLLESGGGLVQPGGSLRLSCVASGFSFSTYAMSWVRQAPGQGLEWVSTITGTSIGTYYADSVKGRFTISRDNSKNTVFLQMKSLRAEDAAVYYCANHPLASGDEYYYYYMDVWGKGTTVTVSS
VL: EIVLTQSPDTLSLSPGERATLSCRASQSVHSKQLAWYQQKPGQAPRLLIYGASSRATGIPDRFSGSGSGTDFTLTISRLEPEDFAVYYCQQYGSIRALTFGGGTKVEIK
B15: C523 (antibody, V domains shown)
VH: QVQLQESGPGLVKPSETLSLTCTVSGASISSHYWSWIRQPPGKGLEWIGYIHYIGSTNYNPSLKSRVTILLDTSKNQFSLRLRSVTAADTAVYYCARGWPYCGVDCYSGFDYWGQGTLVTVSS
VL: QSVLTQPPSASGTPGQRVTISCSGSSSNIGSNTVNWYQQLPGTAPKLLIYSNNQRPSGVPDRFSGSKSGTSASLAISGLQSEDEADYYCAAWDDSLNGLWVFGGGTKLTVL
B16: C528 (antibody, V domains shown)
VH: EVQLVESGGGLVQPGGSLRLSCAASGFTFRNYDMHWVRQVAGKGLEWVSAIGTSGDTYYPDSVKGRFTISRENAKNSVYLQMNNLRAGDTAVYFCVRDREISGWTGWYFDLWGRGTLVTVSS
VL: DIQMTQSPSSLSASVGDRVTITCRASQTIHNYLNWYQQIPGKAPRLLIYATNTLQSGVPSRFSGSGSGTDFTLTITGLQPEDFATYYCQQSYSTPPITFGQGTRLEIK
B17: C514 (antibody, V domains shown)
VH: EVQLVESGGGLVQPGGSLRLSCAASEFIVTRNYMSWVRQAPGKGLEWVSLIYPGGSTFYADSVKGRFTISRDNSKNTLFLHMNSLRAEDTAVYYCARDLAGRLDYWGQGTLVTVSS
VL: DIQMTQSPSSLSASVGDRVTITCQASQDINNFLNWYQQKPGKAPKLLIYDASNLETGVPSRFSGSGSGTDFTFTISSLQPEDIAIYYCQQYDSLSRLTFGGGTKVEIK
B18: C517 (antibody, V domains shown)
VH: EVQLVESGGGLVQPGGSLRLSCAASEFIVSRNYMSWVRQAPGKGLEWVSLIYSGGSTYYADSVKGRFTISRDNSKNTLYLQMNSLRAEDTAMYYCARDIAGRLDYWGQGTLVTVSS
VL: DIQMTQSPSSLSASVGDRVTITCQASQDISKYLNWYQQKPGKAPKLLIYDASNLETGVPSRFSGSGSGTDFTFTISSLQPEDFATYYCQHYDSLSRLTFGGGTKVEIK
B19: C525 (antibody, V domains shown)
VH: EVQLVESGGRLVQPGRSLRLSCAASGFTFDDYAIHWVRQAPGKGLEWVSGISWNSGSIGYADSVRGRFTISRDNAKNSLYLQMNSLRAEDTALYYCAKGLDSSSSASPDYWGQGTLVTVSS
VL: DIQMTQSPSSVSASVGDRVTITCRASQDISSWLAWYQQKPGKAPKLLIYLASSLQSGVPSRFSGSGSGTDFILTISSLQPEDFGTYYCQQGNSFPLTFGGGTKVEIK
B20: C527 (antibody, V domains shown)
VH: QVQLVESGGGVVQPGRSLRLSCAASGFTFSSYGMHWVRQAPGKGLEWVALIGYDGTDKYYAENVKGRFTISRDNSKNTLFLQMNSLRGGDTAVYLCARDGIPFRYGMDVWGQGTTVTVSS
VL: DIQMTQSPSTLSASVGDRVTITCRASQSIDIWLAWYQQKPGKAPKFLIHKASTLESGVPSRFSGSGSGTEFTLTISSLQPDDFATYYCQHYHSYSGTFGQGTKVEIK
B21: C532 (antibody, V domains shown)
VH: EVQLVQSGAEVKKPGESLKISCKGSGYRFTNYWIGWVRQMPGKGLEWIGNIFPGDSDSRYSPSFQGQVTISVDMSITTAYLHWSSLKASDTAIYYCARLSERWYSPFDSWGQGTLVTVSS
VL: EIVMTQSPATLSVSPGERATLSCRASQSVSSNLAWYQQKPGQAPRLLIYGASTRATGFPARFSGSGSGTEFTLTISSLQSEDFAVYFCQQYNNWPPGGFTFGPGTKVDIK
B22: C516 (antibody, V domains shown)
VH: QVQLVQSGAEVKKPGSSVKVSCKASGGTFSSYAISWVRQAPGQGLEWMGRIIPMLVIATYARKFQGRVTITADKSTSTAYMELSSLRSEDTAVYYCARGVVAATPGNFDIWGQGTMVTVSS
VL: EIVMTQSPATLSVSPGERATLSCRASQSVSSNLAWYQQKPGQAPRLLIYGASTRATGIPARFSGSGSGTEFTLTISSLQSEDFAVYYCQQYNNGLTFGGGTKVEIK

What follows are binders tested against SARS-CoV-2 spike protein receptor binding domain (RBD) (SARS-CoV-2, UniProt P0DTC2 319-539) (assay: ELISA on plate-coated RBD).
For B1, the EC50 was 11.1 ng/mL.
B2 was tested, and the EC50 was 4.02 ng/mL.

These binders were tested against SARS-CoV-2 spike protein receptor binding domain (RBD), wild type (SARS-CoV-2, UniProt P0DTC2 319-539) (assay: ELISA, RBD protein coated on plate, antibody titrated).
B3 showed an EC50 of 5 ng/mL.
B4 gave an EC50 of 1.33 ng/mL.
Binder B5 has an EC50 of 6.84 ng/mL.
In the case of B6, the EC50 is reported as 1.73 ng/mL.
For B7, the EC50 was 8 ng/mL.
B8 showed an EC50 of 18.2 ng/mL.
For B9, the EC50 was 1.68 ng/mL.
B10 showed an EC50 of 3.77 ng/mL.
B11 was tested, and the EC50 was 3.78 ng/mL.
Work on B12 yielded an EC50 of 308 ng/mL.
For B13, the EC50 was 10.5 ng/mL.
B14 was tested, and the EC50 was 1.31 ng/mL.
B15 gave an EC50 of 9.08 ng/mL.
B16 gave an EC50 of 5.66 ng/mL.
With B17 the EC50 was 0.82 ng/mL.
Binder B18 has an EC50 of 0.87 ng/mL.
For B19, the EC50 was 10.6 ng/mL.
For B20, the EC50 was 13.4 ng/mL.
In the case of B21, the EC50 is reported as 1 ng/mL.
In the case of B22, the EC50 is reported as 5.72 ng/mL.
